Test results published in IntAct's records for PubMed 11231575.

Target: arp3_bovin ACTR3 (UniProt P61157)

Row | Substance | effect of a mutation on the interaction
1 | Src substrate cortactin (Mus musculus), Q60598 D20G;D21A | disrupting interaction
2 | Src substrate cortactin (Mus musculus), Q60598 W22A | disrupting interaction
